Assay: yeast display, Sf9 membrane polyspecificity reagent, FACS + sequencing; frameworks hold sequencing errors
In short: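 Galactose induction of a Saccharomyces cerevisiae BJ5465 synthetic nanobody display library ran 36–48 hours. The cells were then stained for 1 hour at 4 °C with 10% biotinylated, detergent-solubilized Sf9 membrane reagent, pulled down on streptavidin microbeads and FACS-sorted into low and high (top ~1%) gates on expression and reagent-binding fluorescence. Labels for polyreactivity follow the gate of origin.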

Row | Sequence | polyreactivity (PSR sort gate)
1 | QVQHVESGGGLVQAGGSLRLSCAASGRTFRDYVMGWYRQAPGKETALVAAISTRGASTYYADSVKGRFTISRDNANNTVYLQMNRLKPEDTAVYYCAARSTRRGNEYDYWGQRTQVTVSS | high polyreactivity
2 | QVQLVESGGGLVQAGGSLRLSCAASGNTFYINTMGWYRQAPGKEREFVAAITWSGGPTYYADSVKGRFTISRDNAKNTVYLQMNSLKPEDTAVYYCAADSRGEDYYYWGQGTQVTVSS | high polyreactivity
3 | QVQLVDSGGGLVQAGGRLLLSCSDSGINIPYYAMGWYRQAPGKERELVASISYDGTSSYYADSVKGRFTISRDNAKNTVYLHLNSLKPEDTAVYYCAPVPWWPRASYSMDYWGQGTQVTLSS | low polyreactivity
4 | QVQLVESGGGLVQAGGSLRLSCAASGSTFFGNTMGWYRQAPGKERELVAAISRRGGSTYYADSVKGRFTISRDNAKNTVYLQMTSLIPEDTAVYYCAKYYQSGGYTPGKYDYWGQGTQVTVSS | high polyreactivity
5 | QVKLVESAGGLVQAGGSLRLSCAASGSIFPYNVMGWYRQAPGKERELVAAITRRGGSTYYADSVKGRFTISRDNAKNTVYLQMNSLKPEDSAVYYCAAVPYPRGIGYDYWGQGTQVTVSS | high polyreactivity
6 | QVQLVESGGGLVQAGGSLRLSCAASGYIFVNAMGWYRQAPGKERELVAAISSGRSTHYADSVKGRFTISLDNAKNTVYLQLNSLKPEDTAVYYCNADLYSWYWAGYNYWGQGTQVTVSS | high polyreactivity
7 | QVQRVESGGGIVQARGSLRLSCAASGRIFKTNAMRCYRQSRGKERELVAAISSSGGSTYYADSVKGRFTISRDNAKNTVDLQRNSLNPEDTAVYYCAADGRTKGYDSLGQGTQVTVSS | high polyreactivity
8 | QVQLVESGGGLVQAGGSLRLSCAASGRIFGVNAMGWYRQAPGKVRELVAAIRYSGGSTYYADSVKGRFTISRDYAKNTVYLQMNSLKPEDTAVYYCAKARYTYSWSFGYWGQGTQVTVSS | low polyreactivity
9 | QVQLVESGGGLVQAGGSLRLSCAASGLIFPQYAMGWYRQAPGKERELVAAISLSGTSTNYADSVKGRFTISRDNAKNTVYLQMNSLKPEDTAVYYCLADQRITQSVELEYDSWGQGSQVTVSS | low polyreactivity
10 | QVQLVESGGGLVQAGGSLRLSCAASGFTFYSYAMGWYRQAPGKERELVAAISWSGSRTYYADSVKGRFTISRDNAKNTVYLQMNSLKPEDTAVYYCTKYLPRHRYDFDYWGQGTQVTVSS | high polyreactivity
11 | QVQLVESGGGLVQAGGSLRLSCAASGSIFWYYAMGWYRQAPGKERELVAAIRRGGSTTYADSVKGRFTISRDNAKNTVYLQMNSLKPEDTAVYYCAAEPYYWYRGDYWGQGTQVTVSS | high polyreactivity
12 | QVQLVESAGGLVQAGGSLRLSCAPSGSIFVAYAMGGYLQAPGKERELVAAISWRSGSTYYADSVKGRFTISRDNAKNTVYLQMNSLKPEDTAVYYSAAKQDQDYYWGQGTQVTVSS | low polyreactivity
13 | QVQLVESGGGLVQAGVSLRLSCAASGYIFRFNAMGWYRQAPGKERELVAVITSGARTYYADSVKGRFTISRDNAKNTVYLQMNSLKPEDTAVYYCNAGARRYLYDYWGQGTQVTVSS | low polyreactivity
14 | QVQLEESGGGLVQAGGSLRLSCAASGSIFVRNAMGWYRQAPGKERELVASISRRGGSTYYADSVKGRFTISRDNAKNTVYLQMISLKPEDTAVYYCAARNQIVPYGTYNYWGQGTQVTVSS | high polyreactivity
15 | QVQLVESGGGLVQAGGSLRLSCAASGFIFGGNAMGWYRQAPGKERELVAAVSWIAGSTHYADSVKGRFTISRDNAKNTVYLQMNSLKPEDTAVYYCAADHEGSLSRGFTETDYDYWGQGTQVTVSS | low polyreactivity
16 | QVQLVESGGGLVQAGGSLRLSCAASGRTFGRYAMGWYRQAPGKERELVAAITWSGGSTYYADSVKGRFTISRDYAKNTVYLQMNSLKPEDTAVYYCAAARVYFGDLFVVYYFIQYDYWGQGTQVTVSS | low polyreactivity
17 | QVQLVESAGGLVQAGGSLRLSCAASGSIIADNAMGWDRQSPGTERELVAAITGGDSTYYADSVKGRFTISRDNAKNTVYLQMNSLKPEDTAVYYCNADRFRGRTVDGDYWGQGTQVTVSS | low polyreactivity
18 | QVHLVESGGGLVQAGGSLRLSCSASGITFTRYTMGWYRQARGKERELVASIRRSGSTNYADSVKGRFTISRDNAKNTVYLQMNSLKPEDTAVYYCAAVQTGRYYYWGQGTQVTVSS | high polyreactivity
19 | QVQLVESGGGLVQAGGSLRLSCAASGITFSRYAMGWYRQAPGKERELVAAISWSGTSTYYADSVKGRFTISRDNAKNTVYLQMNSLKPEDTAVYYCAASYGYYRYGYWGQGTQVTVSS | high polyreactivity
20 | QVQLVESAGGLVQAGGSLRLSCAASGFIFDVYAMGWYRQAPGKERELVAAISVSSTNYADSVKGRFTISRDNAKNTVYLQMNSLKPEDTAVYYCAADTYTYFLASYLYGQYDYWGQGTQVTVSS | low polyreactivity
21 | QVLLVESGGGLVQAGGILRLSCAASGLTFTYYAMGWYRQAPGKERELVAAISRCGTGTYYADSVKGRFTISRDNAKNTVYLHMNSLKPEDTAVYYCATLPGRYFTANEYWGQGTQVTVSS | high polyreactivity
22 | QVQLVESGGGLDQAGGSLRLSCAASGRIFRYNAMVWYRQAPGKERELVASISGTSRTKYADSVKGRFTISRDNAKNTVYLQMNSLKPEDTAVYYCAARRYGWGRAQSSASYDHWGQGTQVTVSS | high polyreactivity

Row | Sequence | polyreactivity (PSR sort gate)
23 | QVQLVESGGGLVEAGGSLRLSCAASGRIFGRNAMGWYRQAPGKERELVAGISSGGTTDYADSVKGRFTISRDNAKNTVYLQMNSLKPEDTAVYYCNVGYAYDDQTYYLGESDYWGQGTQVTVSS | low polyreactivity
24 | QVQLQEGGGGLVQAGGSLRLSCAASGYISYGDVMGWYRQAPGEERELVASIGLDATTNYADSVKGRFTISRDNAKITVYLQMNSLKPEDTAVYYCAADVGSGVLCGYWGQGTQMTVSS | high polyreactivity
25 | QVQLVESVGGLFQAGGSLRLSCAASGSIFAYNTMGWYRQAPGKEREFVAAISWRGGSTYYADSVKGHFTISGDNAKNTFYLQMNSLKPEDTAVYYCNARYRNTFYSRRYDYWGQGTQVTVSS | low polyreactivity
26 | QVQLVESGGGLVQAGGSLRLSCAPSGRIFAYNTMGGYRQAPGKERELVAVSTSGGSTNYADSVKRRFTISRDNAKNTVYLQMNSLKTEDTAVYYCATLETTGVNYWGQGTQVTVSS | high polyreactivity
27 | QVQLVESGGGLVQAGGSLRLSCAASGSTFTQYAMGWYRQEPGKERELVAAITGSGGRTYYADSVKGRFTISRDNAKNTVYLQMNSLKPEDTAVYYCAARDKFGGYYHWGQGTQVTVSS | high polyreactivity
28 | QVQLHESGGGLVQAGGSLRLSCAASGTISYAGPMGWYRQAPGKEREFVAGIGVGSNTNYADRVKGRYTIIRDNAKNTEYLQRNSLKPEDTALYYCAVGGYAPLGRPYWGQGTQVTVSS | low polyreactivity
29 | QVQLVESGGGLVQAGGSLRLSCAPSGFTFLKNAMGWYRQAPGKERELVAAITGSGGSTYYADSVKGRFTISRDTEKNTVYLQMYSLKPEDTAVYYCNVRRGLRDYEYWGQGTQVTVSS | high polyreactivity
30 | QVQLVESGGGLVQAGGSLRLSCAASGSTFYIYAMGWSRQAPGKERELVARISGSGGSTYYADSVKGRFTISRDNAKNTVYLQMNSLKPEDTAVYYCAADDIYKYYQYYAFPYYRYDYWGQGTQVTVSS | low polyreactivity
31 | QVQLVESGGGLVQAGGSLRLSCAASGRIFGTYAMGWYRQAPGKERELVAAITSGGRTYYADSVKGRFTISRDNAKNTVYLQMNSLKPEDTAVYYCNAVRYYVYDRRFNYWGQGTQVTVSS | high polyreactivity
32 | QVQLVESGGGLVQAGGSLRLTCAASGSIFGGYGMGWYRQAPGKERELVAAITSGTSTYYADSVKGRFTISRDNAKNTVYLQMNSLKPEDTAVYYCAARPYPHSAYEGDYWGRGTQVTVSS | low polyreactivity
33 | QVQLVESGGGLVQAGGSLRLSCAASGITFPYNAMGWYRQAPGKERELVASINSGDSTNYADSVKGRFTISRDNAKNTVYLQMNSLKPEDTAVYYCAAADYWHYKYDYWGQGTQVTVSS | low polyreactivity
34 | QVQLVESGGGLVQAGGSLRLSCAASGFTFRHNTMGWYRQAPGKERELVAAISIGGRTYYADSVKGRFTISRDNAKNTVYLQMNSLKPEDTAVYYCAKLSRGQSPGYDYWGQGTQVTVSS | high polyreactivity
35 | KVQLVESGGGLVQAGGSLRLSCAASGRTFESYAMGWYRQAPGKERELVAAITWSGGDTYYADSVKGRFTISRDNAKNTVYLQMNSLKPEDTAVYYCAKEQGLYSVSPYDYWGLGTQVTVSS | low polyreactivity
36 | QEQLQESGGGLVQAGDSPRLSCAESGYISARTGMGSYRQAPGKEREFVAGIASGTSTHYADSVKGRFTISRDNAKNAVYLQMNSLKPEDTAVYYCAKDYRYIFIYPYGWTRYDYWGQGTQVTVSS | low polyreactivity
37 | QVQLVESGGGLVQAGGSLRLSCAASGRIFVQYDMGWYRQAPGKERELVAAITGGGGSTYYADSVKGRFTISRDNAKNTVYLQMHSLKPEDTAVYYCAADQDVYDFTGYDYWGQGTQVTVSS | low polyreactivity
38 | QVQLVESGGGLVQAGGSRRLSCAASGSTFARYPMGWYRQAPGKERELVATITRGGSTNYADSVKGRFTISRDNAKNTVYLQMNSLKPEDTAVYYCNARCGRSPYGYGDYYWGQGTQVTVSS | high polyreactivity
39 | QVQLVESGGGLVQAGGSLRLSCAASGSTFWWYAMGWYRQAPGKDRELVAASSYSGSSTYYADSVKGRFTISRDNAKNTVYLQMNSLKPEDTAVYYCAADIQYYYNYYPGDYWGQGTQVTVSS | low polyreactivity
40 | QVQLVESGGGLVQAGGTLRLSCAASGSIFRYYAMGWYRQAPGKERELVATITSTGGSTYYADSVKGRFTISRDNAKNTVYLQMNSLKPEDTAVYYCAARNKWYVTVRGYYLSGFWGQGTQVTVSS | high polyreactivity
41 | QVQHVESGICLVQAGGSLRLSCAASGGTVTPYAMGWYRQAPGKERELVAAISRYGARTYYADSVKGRFTISRDNANNNVFLEMNSLKPEVSAVYYCAARWYARTYVRGGMVYWRQGTQVTVSS | high polyreactivity
42 | QVQLVESGGGLVQAGGSLRLSCAASGSIFDGNAMGWYSQAPGKERELVAAITTDYRTYYADSVKGRFTISRDNAKNTFYLQMNSLKPEDTAVYYCNVVIYYFNSRTVYYDYDYWGQGTQVTVSS | high polyreactivity
43 | QVQLVESGGGLVQAGGSLRLSCAASGSTFSPYAMGWYRQAPGKERELVAAIRRGGSTNYADSVKGRFTISRDNAKNTVYLQMNSLKPEDTAVYYCAATKRRFVKFDYWGQGTQVTVSS | low polyreactivity

— the nanobody polyreactivity screen of Harvey et al. (2022)
